Assay results taken from the supplement of paper PMC9170038.

Tested on: MS2 coat protein
Experiment: apparent KD of MS2 coat protein; designed switch direction (-1 OFF switch, 1 ON switch): -1; higher = weaker reporter binding
Procedure, shortened: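 Designed RNA switches with common flanks were made on Illumina chips by stalled E. coli RNA polymerase. Titration with SNAP-549-labelled MS2 coat protein doubled from 0.7 or 1.5 nM up to 3 µM. Apparent KD is each design's median over clusters after curve-fitting normalised fluorescence.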

[1] = input ligand: microRNA oligo, concentration not stated
[2] = Eterna round: R95, input ligand: FMN 200 uM
[3] = Eterna round: R95, input ligand: microRNA oligo, concentration not stated
[4] = Eterna round: R95, input ligand: none

Sequence	apparent KD of MS2 coat protein (input ligand: FMN 200 uM)	apparent KD of MS2 coat protein (input ligand: none)	apparent KD of MS2 coat protein [1]	apparent KD of MS2 coat protein [2]	apparent KD of MS2 coat protein [3]	apparent KD of MS2 coat protein [4]
AGUUGGCGAGGAUAUACAUGAGGAUCACCCAUGUAUGAGAUAAAAGUGAGGUAAAUAUGUAGAAGGCGCUGACA [JR_Ex3_Sub078] (Eterna round: R97, puzzle: Exclusion 3)	0.897 µM	0.107 µM	–	–	–	–
UCUCGUAGGCAAGGAUAUCCUACAUUGUUCUGGCCCGGGCAUGCUACAUGAGGAUCACCCAUGUGGGAGAAGGUGCGCCACUGC [Design 27] (Eterna round: R96, puzzle: Exclusion NG 2)	0.0524 µM	0.0362 µM	0.0397 µM	–	–	–
GGAAAGGUAGGAUAUACGAAGAAAAAGGGUAGAAGAAUAACACAUGAGGAUCACCCAUGUAGAAGGACCAAAGC [Mat - Exclusion 2 - Mod of my Tesla design - D14] (puzzle: Exclusion 2)	–	–	–	0.0968 µM	0.0251 µM	0.0258 µM
GGUGUGAGGCAGGAUAUGCUAUAUGUUAGUAAUGCAGAAGGGUCUACAUGAGGAUCACCCAUGUGUGCGGUAGA [Ex6 #4] (Eterna round: R97, puzzle: Exclusion 6)	0.345 µM	0.139 µM	–	–	–	–
ACAUGAGGAUCACCCAUGUCUGGCUGGUCCGCUCCGGCUGUUGAGGAUAUAGCUCGGUGUCCGCGCUAGAAGGUGAGGGCUGGC [Aenatbe mod 34] (Eterna round: R96, puzzle: Exclusion NG 3)	0.0324 µM	0.0319 µM	0.0195 µM	–	–	–
AUUUACGGAGGAUAUACUUGAGGAUCACCCAAGUGGAGUCCCGUUUGGGCGGUAAAUAGUAGAAGGCCGUCCCA [jl-ex3-4.45 ViennaUCT mod] (Eterna round: R97, puzzle: Exclusion 3)	0.0202 µM	0.0133 µM	–	–	–	–
AAAAUGUCAGGAUAUACGAAACAAAACAAAACAAAACAAAAGUAGAAGGGACAUGAGGAUCACCCAUGUAAGAA [Exclusion 4 #2] (puzzle: Exclusion 4)	–	–	–	0.0496 µM	0.0241 µM	0.0325 µM
GCUAGGAGUGUGAGGAUAUGCUGAUCCUUGGAUCAGCAGAAGGCACAUGAGGAUCACCCAUGUGAAGACCUAGC [Mat - Exclusion 4 - JL Mod - D2] (Eterna round: R97, puzzle: Brourd's mod of Exclusion 4)	0.169 µM	0.03 µM	–	–	–	–
GUGUAACAUGAGGAUCACCCAUGUCAGGAUAUCCGCUUUAACUAAAUAAAUAAAUAGUGGAGAAGGGACAGCGC [-13.9, -13.37 kcal, 36% A] (Eterna round: R97, puzzle: Exclusion 1)	0.0557 µM	0.0468 µM	–	–	–	–
GAAUAGCGAGGAUAUACAUGAGGAUCACCCAUGUGAUCCUUAGGCUGUUCAAGCCUAUGUAGAAGGCGCAAAUU [jl-ex3.4.56 ViennaUCT mod] (Eterna round: R97, puzzle: Exclusion 3)	0.0862 µM	0.335 µM	–	–	–	–
CCUCUGUUAGGAUAUGGCAAAGAUGAGACACACCGACAUUGUUAGAAGGGACAUGAGGAUCACCCAUGUCAGCG [Eternabot (L1) Solution 57] (Eterna round: R97, puzzle: Exclusion 4)	0.0228 µM	0.0214 µM	–	–	–	–
UUUUGUCGUGACAUGGGUGACAUGAGGAUCACCCAUGUUACAAGCUUGUUGCUCGUCUUAUAAUUAACCCAUGUCAC [LRO Sensor-off var1-17 mod of Stov1-13-A1 by Brourd] (Eterna round: R97, puzzle: Sensor, turn-off variant 1)	0.0176 µM	0.0161 µM	–	–	–	–
ACCAAUGCAGGAUAUACAUGAGGAUCACCCAUGUAUAACCUACAUAGAUGAUCAUCAUGUAGAAGGGCAAUGGA [EX3 229: Super Stable 29] (Eterna round: R96, puzzle: Exclusion 3)	0.0122 µM	0.0146 µM	0.0111 µM	–	–	–
GCCUUAUCCGUCAGGAUAUACAGCCGCUCCUUGUUGUAGAAGGGACAUGAGGAUCACCCAUGUACGUACCAUUG [alecazam5] (Eterna round: R97, puzzle: Brourd's mod of Exclusion 4)	0.0254 µM	0.0247 µM	–	–	–	–
UGAUCUAGCGGAGGAUAUACAUGAGGAUCACCCAUGUAGAUAACUGCACCGUAGUGUAGUAUUGUGUAGAAGGCCGCUAGAUCU [JL ENG2 3.65] (Eterna round: R96, puzzle: Exclusion NG 2)	0.0268 µM	0.0142 µM	0.0114 µM	–	–	–
GUGUACAGAGGAUAUACACGAAUCUAGCGAAGCUAGGUUUGACAUGAGGAUCACCCAUGUAGAAGGCUGUACAC [Dot plot directed A detuned for Vienna 1] (puzzle: Exclusion 2)	–	–	–	–	0.0167 µM	–
GGUCAGACGGUAGGAUAUCCAUAUCGAGUGACUCUUUCAUAACAUGAGGAUCACCCAUGUCGGUGGGAGAAGGGCCGUACGGCG [salish99_ExNG02_R04_005] (Eterna round: R96, puzzle: Exclusion NG 2)	0.0615 µM	0.0427 µM	0.0296 µM	–	–	–
CGUAAAAGGAAGGAUAUGCUAGACGAAAGUCUAGCAGAAGGUCCUACAUGAGGAUCACCCAUGUGUCCUAUACG [Mat - Exclusion 6 - Eli Mod - D12] (Eterna round: R97, puzzle: Exclusion 6)	0.0805 µM	0.0498 µM	–	–	–	–
UCCUCACAUGAGGAUCACCCAUGUGAGGAUAUCAUGCUUCGUAGUAAACUACGAAGUGUGAGAAGGCACAUGGC [Omei Ex1 D15] (Eterna round: R97, puzzle: Exclusion 1)	0.0239 µM	0.0196 µM	–	–	–	–
GGAUCGAAUGUGAGGAUAUACCUAUGGAAACAUAGGUAGAAGGCACAUGAGGAUCACCCAUGUCCAAACGGUCC [Mat - Exclusion 4 - Eli Mod - D13] (Eterna round: R97, puzzle: Brourd's mod of Exclusion 4)	1.05 µM	0.225 µM	–	–	–	–
GAAAAUGUGGAGGAUAUCGACUUCGAAAGAAGUCGAGAAGGCCACACAUGAGGAUCACCCAUGUGAUGCCAAUA [Omei Ex6 H9] (Eterna round: R97, puzzle: Exclusion 6)	0.443 µM	0.284 µM	–	–	–	–
CUUAGUAUCUAGGAUAUCUAGUACAUAGUAUCUAGAGAAGGAGAUACAUGAGGAUCACCCAUGUUCUGUGAUCU [Exclusion 6 - 2:d] (puzzle: Exclusion 6)	–	–	–	–	0.217 µM	–
UUUAGUUCAGGAUAUGUAGAUUUUAACAUGAGGAUCACCCAUGUGGAUCCUGAAUUAACUACAGAAGGGAACAUUU [Mod of Brourd 3 - Jieux - Exclusion 5] (Eterna round: R97, puzzle: Exclusion 5)	0.294 µM	0.043 µM	–	–	–	–
UGUGUGAGACAGGAUAUGCCGGUUGUAUUACUGGUAGAAGGGUCUACAUGAGGAUCACCCAUGUGGCCGGCCGG [Ex6 #82] (Eterna round: R97, puzzle: Exclusion 6)	0.0731 µM	0.0262 µM	–	–	–	–
ACUUAUAGAGGAUAUACAGAAUAUUACAUGAGGAUCACCCAUGUUCUUCAAUGUAUAUAUGUAGAAGGCUAAGGAU [Mat - Exclusion 5 - JL Mod - D6] (Eterna round: R97, puzzle: Exclusion 5)	0.299 µM	0.0899 µM	–	–	–	–
